Experimental data as given in patent publication US20160130351A1 (NOVIMMUNE S A, published 2016).

Assays:
[1] = target: T1, membrane-bound human IL-6R (human, UniProt P08887 20-468); assay: flow cytometry on HepG2 cells, goat anti-human IgG Alexa Fluor 647
T1 construct: whole, on cells; also called mIL-6R; membrane IL-6R
T1 sequence (looked up): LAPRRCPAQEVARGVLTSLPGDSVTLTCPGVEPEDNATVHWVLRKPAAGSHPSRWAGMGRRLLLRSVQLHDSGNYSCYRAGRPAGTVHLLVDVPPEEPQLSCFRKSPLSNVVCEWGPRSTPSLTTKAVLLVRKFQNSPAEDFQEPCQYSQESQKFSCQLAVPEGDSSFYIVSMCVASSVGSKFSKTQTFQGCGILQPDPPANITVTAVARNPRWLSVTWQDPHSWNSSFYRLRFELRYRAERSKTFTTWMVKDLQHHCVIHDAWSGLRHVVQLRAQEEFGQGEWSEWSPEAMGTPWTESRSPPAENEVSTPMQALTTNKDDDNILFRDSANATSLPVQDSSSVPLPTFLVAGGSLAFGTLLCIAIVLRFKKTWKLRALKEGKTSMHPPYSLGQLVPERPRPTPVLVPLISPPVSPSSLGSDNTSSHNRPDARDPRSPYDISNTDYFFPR
Description: Cell surface staining is performed on HepG2 cells with different doses of mAbs. […] Each experiment was performed in triplicates.

[2] = target: soluble human IL-6Rc (shuIL-6Rc) recombinant fusion protein of IL-6R and IL-6 (human) (UniProt P08887); assay: SPR (Biacore 2000), mAb captured on anti-human IgG Fc, analyte in solution, 25 C, 1:1 Langmuir
MUTANT 2 = target: T2, MUTANT 2 (mouse, UniProt P22272); assay: flow cytometry on PEAK cells displaying the mutated mouse IL-6R, goat anti-human IgG Alexa Fluor 647
T2 construct: also called mouse IL-6R with human residues in D3, mutant 2
T2 sequence (receptor chain, looked up): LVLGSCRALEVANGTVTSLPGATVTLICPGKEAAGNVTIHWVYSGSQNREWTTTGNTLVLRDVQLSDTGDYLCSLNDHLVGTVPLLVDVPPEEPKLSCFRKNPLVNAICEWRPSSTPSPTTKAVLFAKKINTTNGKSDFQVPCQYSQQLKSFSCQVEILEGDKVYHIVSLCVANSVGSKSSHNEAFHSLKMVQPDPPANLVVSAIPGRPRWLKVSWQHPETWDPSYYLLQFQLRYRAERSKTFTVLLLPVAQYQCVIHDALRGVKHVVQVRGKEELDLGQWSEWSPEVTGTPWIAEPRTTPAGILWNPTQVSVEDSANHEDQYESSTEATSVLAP
Text: (§1) An overlap extension PCR strategy was used to generate coding sequences specifying huIL-6R/mouseIL-6R chimeric proteins (FIG. 6A) and mouse IL-6R proteins containing human amino acid substitutions in D3 domains (FIG. 6B). Partially overlapping mutagenic oligonucleotide primers were used for PCR amplification of N- and C-terminal sequences on either side of huIL-6R/mouse IL-6R junctions or substituted regions, followed by gel isolation and annealing of the denatured PCR products. Full length PCR products were then digested by EcoRI and BglII and ligated into a pDISPLAY™ vector (Invitrogen). PEAK cells were grown in DMEM medium supplemented with 10% fetal calf serum and 4 mM L-glutamine. Cells were plated 12 to 24 h before transfection to have 40-50% confluency in 6 well plates. Transfections of pDISPLAY™ vectors (Invitrogen) were carried out by lipofection using TransIT® LT1 reagent (MirusBio) according manufacturer's specifications. Cells were grown for 48 h before harvesting and analysis by flow cytometry.
(§2) Cell surface staining was performed on PEAK cells displaying each variant of IL-6R and analyzed by flow cytometry (FIG. 6B-D). Cell surface expression of each chimeric IL-6R was assessed using an anti-human-CD126 PE or an anti-mouse CD126-PE antibody (BD Pharmingen).

MUTANT 5 = target: T3, MUTANT 5 (mouse, UniProt P22272); assay: as above
T3 construct: also called mouse IL-6R with human residues in D3, mutant 5
T3 sequence (receptor chain, looked up): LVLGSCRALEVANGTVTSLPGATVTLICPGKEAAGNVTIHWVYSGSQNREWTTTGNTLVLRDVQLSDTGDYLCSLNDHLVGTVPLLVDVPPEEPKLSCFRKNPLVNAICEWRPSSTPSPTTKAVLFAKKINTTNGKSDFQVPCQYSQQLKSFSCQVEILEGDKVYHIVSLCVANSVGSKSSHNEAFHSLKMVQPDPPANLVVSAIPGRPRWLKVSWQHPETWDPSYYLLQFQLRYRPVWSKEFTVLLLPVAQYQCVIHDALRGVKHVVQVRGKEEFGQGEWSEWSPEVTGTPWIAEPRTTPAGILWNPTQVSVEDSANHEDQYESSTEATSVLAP
Text: as §1, §2

MUTANT 3 = target: T4, MUTANT 3 (mouse, UniProt P22272); assay: as above
T4 construct: also called mouse IL-6R with human residues in D3, mutant 3
T4 sequence (receptor chain, looked up): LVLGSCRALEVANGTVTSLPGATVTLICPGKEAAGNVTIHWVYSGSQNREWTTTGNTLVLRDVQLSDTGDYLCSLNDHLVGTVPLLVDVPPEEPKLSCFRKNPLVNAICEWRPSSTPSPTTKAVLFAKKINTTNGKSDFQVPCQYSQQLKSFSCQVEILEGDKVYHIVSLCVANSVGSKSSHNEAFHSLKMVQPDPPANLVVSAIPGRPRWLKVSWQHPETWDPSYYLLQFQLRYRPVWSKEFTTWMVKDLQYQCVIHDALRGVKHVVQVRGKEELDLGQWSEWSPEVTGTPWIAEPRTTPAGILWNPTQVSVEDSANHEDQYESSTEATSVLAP
Text: as §1, §2

MUTANT 1 = target: T5, MUTANT 1 (mouse, UniProt P22272); assay: as above
T5 construct: also called mouse IL-6R with human residues in D3, mutant 1
T5 sequence (receptor chain, looked up): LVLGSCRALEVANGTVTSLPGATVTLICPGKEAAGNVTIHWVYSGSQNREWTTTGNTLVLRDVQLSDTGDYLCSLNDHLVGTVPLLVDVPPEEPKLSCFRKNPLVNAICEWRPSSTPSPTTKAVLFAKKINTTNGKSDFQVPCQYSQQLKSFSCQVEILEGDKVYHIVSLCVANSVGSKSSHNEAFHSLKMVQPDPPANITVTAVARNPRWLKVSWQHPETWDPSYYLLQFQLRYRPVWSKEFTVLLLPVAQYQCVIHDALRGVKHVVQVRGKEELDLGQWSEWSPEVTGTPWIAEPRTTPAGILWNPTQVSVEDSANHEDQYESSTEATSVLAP
Text: as §1, §2

EC50 (read off the curve) [1]: ~0.2 µg/mL
Kd [2]: 5.64 nM
koff [2]: 0.000243 s⁻¹
kon [2]: 43100 M⁻¹ s⁻¹
binding result (MUTANT 2): binds
binding result (MUTANT 5): no binding
binding result (MUTANT 3): no binding
binding result (MUTANT 1): no binding
B1: NI-1201 wild type (NI-1201-WT) antibody (antibody, V domains shown)
VH: QVQLVQSGAEVKKPGSSVKVSCKASGGTFSSYAISWVRQAPGQGLEWMGGIIPLFDTTKYAQQFQGRVTITADESTSTAYMELSSLRSEDTAVFYCARDRDILTDYYPMGGMDVWGQGTTVTVSS
VL: AIQLTQSPSSLSASVGDRVTITCRASQGISSVLAWYQQKPGKAPKLLIYDASSLESGVPSRFSGSGSGTDFTLTISSLQPEDFATYYCQQSNSYPLTFGGGTKVEIKR
notes: Fully human monoclonal IgG (captured by anti-human IgG Fc in Biacore); also called 39B9 VL1
